Assay [1] has as its target hCMV envelope glycoprotein B (gB) of hCMV strain VR1814 (hCMV strain VR1814). The assay can be described thus: cell-based or functional assay.
Assay [2] addresses hCMV envelope glycoprotein B (gB) of hCMV strain AD169 (hCMV strain AD169, UniProt P06473 32-906). The assay can be described thus: cell-based or functional assay.
In assay [3] the target is T1, recombinant autologous interstrain fusion antigen CG3 (hCMV strain AD169; hCMV strain Towne, UniProt P06473 27-84; P13201 27-84).
T1 construct: domain: gB Antigenic Domain 2 (AD2); Antigen of the commercial gB(AD2) ELISA (Biotest, Cat. No. 807035; Rothe M et al., 2001); also called CG3 antigen; gB(AD2)
The assay can be described thus: ELISA of the subculture supernatant on the gB recombinant antigen (CG3). For orientation: In an ELISA, binding on a coated surface is turned into a signal by an enzyme label.

B1: 8C10 antibody (antibody, V domains shown)
VH: EVQLVQSGAEVKKPGESLKISCKGSGYTFANYWIAWVRQMPGKGLEWMGIIYPGDSDTRYSPSFQGQVTISADKSFHTVYLQWSSLKASDTAIYFCASTSYYDFWSGYHRGREHYYYGMEVWGQGTTVIVSS
VL: TQSPATLSLSPGERVTLSCRASQSVYNYLAWYQQKPGQAPRLLIYDASNRATGIPARFSGSGSGTDFTLTISSLEPEDFAVYYCQLRRGTFGQGTKVEIKR
Turning to B1, the “hCMV neutralizing activity, dose-response, HUVEC cells with hCMV strain VR1814 (1,000 PFU/reaction), IC50” value in assay [1] was determined as 0.67 µg/mL. Besides, the “hCMV neutralizing activity, dose-response, HELF cells with hCMV strain AD169 (1,000 PFU/reaction), IC50” value in assay [2] was 0.82 µg/mL.

B2: 37B7 antibody (antibody, V domains shown)
VH: QVQLVQSGGEVKKPGASVKVSCKASGYTFTSSGINWVRQAPGQGLEWMGWINTYNGNTKYAQRLQGRVTMTTDTSTDTAYMELRSLRSDDTAVYYCARDGLNWGWGDYWGQGTLVTVSS
VL: TQSPSTLSASVGDRVIITCRASQSISSWLAWYQQKPGKAPKLLIYKASSLESGVPSRFSGSGSGTEFTLTISSLQPDDFASYYCQQCKGYPYTFGQGTKLEIKR
notes: also called antibody secreted by the 37B7 subculture
As to B2, the binding result in assay [3] is listed as “no binding”.

The values above are taken from patent publication US20110171233A1 (RIBOVAX BIOTECHNOLOGIES S A, published 2011).
